How the values were obtained:
Conditions in all cases: glycan lost; control: wild-type ASGP-R1 in U87 cells
[1] = SMN2 exon 7 inclusion RT-PCR, 0-30 µM dose response
[2] = Western blot quantification normalised to tubulin
[3] = SMN2 exon 7 inclusion RT-PCR, single 30 nM dose

Protein	other: receptor-mediated GN3-ASO uptake and activity, fold_change [1]	expression_or_secretion [2]	other: receptor-mediated GN3-ASO uptake and activity [3]
ASGP-R1 H1a (asialoglycoprotein receptor 1): N79Q (protein) parent chain: MTKEYQDLQHLDNEESDHHQLRKGPPPPQPLLQRLCSGPRLLLLSLGLSLLLLVVVCVIGSQNSQLQEELRGLRETFSNFTASTEAQVKGLSTQGGNVGRKMKSLESQLEKQQKDLSEDHSSLLLHVKQFVSDLRSLSCQMAALQGNGSERTCCPVNWVEHERSCYWFSRSGKAWADADNYCRLEDAHLVVVTSWEEQKFVQHHIGPVNTWMGLHDQNGPWKWVDGTDYETGFKNWRPEQPDDWYGHGLGGGEDCAHFTDDGRWNDDVCQRPYRWVCETELDKASQEPPLL	no change	no change	no change
ASGP-R1 H1a (asialoglycoprotein receptor 1): N147Q (protein) parent chain: MTKEYQDLQHLDNEESDHHQLRKGPPPPQPLLQRLCSGPRLLLLSLGLSLLLLVVVCVIGSQNSQLQEELRGLRETFSNFTASTEAQVKGLSTQGGNVGRKMKSLESQLEKQQKDLSEDHSSLLLHVKQFVSDLRSLSCQMAALQGNGSERTCCPVNWVEHERSCYWFSRSGKAWADADNYCRLEDAHLVVVTSWEEQKFVQHHIGPVNTWMGLHDQNGPWKWVDGTDYETGFKNWRPEQPDDWYGHGLGGGEDCAHFTDDGRWNDDVCQRPYRWVCETELDKASQEPPLL	no change	no change	no change
ASGP-R1 H1a (asialoglycoprotein receptor 1): N79Q/N147Q (protein) parent chain: MTKEYQDLQHLDNEESDHHQLRKGPPPPQPLLQRLCSGPRLLLLSLGLSLLLLVVVCVIGSQNSQLQEELRGLRETFSNFTASTEAQVKGLSTQGGNVGRKMKSLESQLEKQQKDLSEDHSSLLLHVKQFVSDLRSLSCQMAALQGNGSERTCCPVNWVEHERSCYWFSRSGKAWADADNYCRLEDAHLVVVTSWEEQKFVQHHIGPVNTWMGLHDQNGPWKWVDGTDYETGFKNWRPEQPDDWYGHGLGGGEDCAHFTDDGRWNDDVCQRPYRWVCETELDKASQEPPLL	–	no change	no change
